# Results taken from patent publication US20180334496A1 (KODIAK SCIENCES, published 2018).
# Where a chain is given by its changes, count along the chain named.
# B1: KCD030 (antibody, V domains shown)
# VH: QVQLQQSGAELAKPGASVKMSCKASGYTFTNYWMHWVKQRPGQGLEWIGYINPSIGYTEYNQKFKDKATLTADKSSSTAYMQLSSLTSEDSAVFYCATFIYYAMDYWGQGTSVTVSS
# VL: DIQMNQSPSSLSASLGDTITITCHASQNINVWLSWYQQKPGNIPKLLIYKASNLHTGVPSRFSGSGSGTGFTLTISSLQPEDIATYYCQQGQSYPYTFGGGTKLEIK
# B2: KCD008 (antibody, V domains shown)
# VH: EVQLQQSGPELVKAGASVKMSCTASGFNIKDTYMHWVKQRPEQGLAWIGRIDPANGNIKYDPKFQGKATITADTSSNTAYLQLSSLTSDDTAVYYCTSAMDYWGQGTSVTVSS
# VL: QIVLTQSPEIMSASPGEKVTMTCSARSSVSYMYWYQQKPGSSPRLLIYDTSNLASGVPVRFSGSGSGTSYSLTISRMETEDAATYYCQQWSTYPFTFGSGTKLEIK
# B3: KCD040 (antibody, V domains shown)
# VH: EVQLQQSGAELVKPGASVKLSCTASDFNIKDTYMHWVMQRPEQGLEWIGKIDPANGNTEFDPKFQGKATITADTSSNTAYLQLTSLTSEDTAVYYCTRAMDYWGQGTSVTVSS
# VL: B2 VL with E9A, R26G, L45V, T79A, T92N, F95Y, S99G
# B4: KCD047 (antibody, V domains shown)
# VH: EVQLQQSGAEFVKPGASVRLSCTASGFNIKDTYMHWVKQRPEQGLEWIGRIDPANGYTKDDPKFQGKATITADTSSNTAYLQLSSLTSEDTAVYYCASAMDYWGQGTSVTVSS
# VL: B2 VL with E9A, I10V, T20A, R26S, S30T, T79A, T96P
# B5: KCD013 (antibody, V domains shown)
# VH: B4 VH with F11L, R19K, N28K, Q39E, E42D, Y57N, D60Y, S98N
# VL: B2 VL with V3I, E9A, R26S, Y31N, T68A, T79A, T92S, F95W, S99G
# B6: KCD002 (antibody, V domains shown)
# VH: EVKLVESEGGLVQPGSSMKLSCTASGFTFSDYYMAWVRQVPEKGLEWVGNINYDGSSTYYLDSLKSRFIISRDSAKNILYLQMSSLKSEDTATYFCARGEDFYLYAMDYWGQGTSVTVSS
# VL: DIQMTQSPASLSASVGETVTITCRASENIHSYLAWYQQKQGKSPQLIVYNTKTLAEGVPSRFSGSGSGTQFSLKINSLQPEDFGSYYCQHHYGIPPTFGGGTKLEIK
# B7: KCD019 (antibody, V domains shown)
# VH: QVQLQQSGAELARPGASVKMSCKASGYTFATYTIHWVKQRPGQGLEWIGYLNLRNDYTHYNQKFRDKAALTADKSSSTAYMQLSSLTSEDSAVYNCAFRLGNDRQGWYFDVWGAGTTVTVSS
# VL: DIVMTQAHRFMSTSVGDRVIISCKASQDVGTAVAWYQQTPGQSPKILIYWTSTRHTGVPDRFTGSRSGTDFTLTISNVQSEDLADYFCQQYTTYPLTFGGGTKLEIK
# B8: KCD004 (antibody, V domains shown)
# VH: EVQLQQSGAELVRPGSSVKMSCKTSGKTFTSHGINWVKQRPGQGLEWIGYIYIGNGYNEYNEKFKGKATLTSDTSSSTAYMQLSSLTFEDSAIYFCVRKAYGNYGFDDWGQGTTLTVSS
# VL: DIQMTQSPTSLSASLGESVSLTCRASQEISGYLNWLQQKPDGSIKRLIYAASTLDSGVPKRFSGSRSGSDYSLTISSLESEDFADYYCLQYANYPFTFGSGTKLEVK
# notes: also called OG2063
# B9: KCD126 (antibody, V domains shown)
# VH: B8 VH
# VL: B8 VL with Y32N
# B10: KCD205 (antibody, V domains shown)
# VH: B8 VH with K27N, F88S
# VL: B8 VL with T9S, S18R, N34S, S43T, R66S, E81D, N93S, V106I
# B11: KCD125 (antibody, V domains shown)
# VH: B8 VH with K27N, H32Y, N55T, N58T, F88S, D108Y
# VL: B8 VL with T9S, S18R, N34S, S43T, N93S, V106I
# B12: KCD220 (antibody, V domains shown)
# VH: QVQLQQSGAELMEPGASVKLSCKATGYTFTGYWIEWVKQRPGHGLEWIGETLPGSDSNNYNEKFKGKATFTADTSSNTAYMQLSSLTTEDSAIYYCARDYSNYWYFDVWGTGTTVTVSS
# VL: DIQMTQTTSSLSASLGDRVTISCRASQDISNYLNWYQQKPDGTVKLLIYYTSNLHSGVPSRFSGSGSGTDYSLTISNLEQEDIATYFCQQDSKHRTFGGGTKLEIK
# B13: KCD018 (antibody, V domains shown)
# VH: QVQLQQSAAELARPGASVKMSCKASGYTFTSYTVHWVKQRPGQGLEWIGYINPSSGFTDYNQKFKDKTTLTADISSSTAYIQLSSLTSEDSAVYYCARRGVNWSWFAYWGQGTLVTVSA
# VL: NIMMTQSPSSLAVSAGEKVTMSCKSSQSVLYSSNQKNYLAWYQQKPGQSPQLLIYWASTRESGVPERFTGSGSGTDFTLTISSVQAEDLAVYYCHQYLSSWTFGGGTKLEIK
# B14: KCD137 (antibody, V domains shown)
# VH: EVQLVESGGDLVKPGGSLKLSCAASGFTFSGYGMSWVRQIPDKRLEWVAISSRDNSFTYYPDSVKGRFTISRDNAKNTLYLQMSSLKSEDTALYFCTRHPYLPTGGYVMDYWGQGTSVTVSS
# VL: DIVMTQSHKFMSTSVGDRVSITCKASQDVGTAVAWYQQRPGQSPKLLIYWASTRHTGVPDRFTGSGSGTDFTLTVSNVQSEDLADYFCQQYTSYPLTFGAGTKLELK
# B15: KCD017 (antibody, V domains shown)
# VH: DVQLQESGPDLVKPSQSLSLTCTVTDYSITSGYSWHWIRQFPGNKLEWLGYIHSSGNTNYNPSLKSRFSITRDTSKNQFFLQLNSVTSEDTATYYCALHYYGSSFGWYFDVWGAGTTVTVSS
# VL: B14 VL with S20Y, R39T, P40S, V75L
# B16: KCD070 (antibody, V domains shown)
# VH: EIQLQQTGPELVKPGASVKISCKASGYSFTDYIILWVKQSHGKSLEWIGNINPYYDYTSYNLKFKGKATLTVDKSSSTAYMQLNSLTSEDSAVYYCARSDGYYGGDYWGQGTSVTVSS
# VL: B14 VL with R39K, V75I, S76N, T92S, L96W, A100G, K103T, L106I
# B17: KCD050 (antibody, V domains shown)
# VH: QVQLKESGPGLVAPSQSLSITCTVSGFSLNSYGVQWVRQPPGQGLEWLVVIWRDGTITYNSALKSRLSINKDNSKSQVFLKMNSLQTDDTAMYYCGRTSHYGNFNYYVMDYWGQGTAVTVSS
# VL: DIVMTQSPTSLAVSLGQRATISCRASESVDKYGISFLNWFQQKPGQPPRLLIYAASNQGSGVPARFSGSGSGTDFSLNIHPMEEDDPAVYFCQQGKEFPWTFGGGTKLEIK
# B18: KCD052 (antibody, V domains shown)
# VH: B17 VH with V49G, T56S, N70R, F104Y
# VL: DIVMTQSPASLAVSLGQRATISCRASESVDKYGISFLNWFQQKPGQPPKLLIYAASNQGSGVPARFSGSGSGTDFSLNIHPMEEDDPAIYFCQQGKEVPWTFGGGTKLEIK
# B19: KCD065 (antibody, V domains shown)
# VH: QVQLQQSGAELARPGASVKMSCKASGYTFTTYTIHWVKQRPGQGLEWIGYINPSSDFTNYNQNFADKATLTADRSSSTAYMQLSSLTSEESAVYYCAIRLGYDRQGWYFDVWGAGTTVTVSS
# VL: DIVMTQSHKFLSTSLGDRVSITCKASQDVGSAVAWYQQKPGQSPDLLIYWTFTRHTGVPDRFTGSRSGTDFTLTISNVQSGDLADYFCQQYSNYPLTFGGGTKLEIK
# B20: KCD230 (antibody, V domains shown)
# VH: QVQLQQPGTELVKPGASVKLPCKASGYTFTSYWMQWVKQRPGQGLEWIGEIDPSDTYINYNQKFKGKATLTVDTSSTTAYMQLSSLTSEDSAVYYCARYTTIMASDYWGQGTTLTVSS
# VL: DIQMTQTTSSLSVSLGDRVTISCRASQDITNYLNWYQQKPDGTVKLLIYFTSRLHSGVPSRFSGSGSGTDYSLTISNLEPEDIATYYCQQYSKLPWTFGGGTKLEIK
# B21: KCD038 (antibody, V domains shown)
# VH: EVQLQQSGPELVKPGTSMKISCKASGYSFADYTMNWVKQSHGKSLEWIGLINPYNGGTSYNQKFMGKATLTVDKSSSTAYMELLSLTSEDSAVYYCARWGTYSHNYDYAMDYWGQGTSVTVSS
# VL: DVVMTQTPLSLPVSLGDQASISCRSSQSLVHSNGNTYLYWYFQKPGQSPKFLIYKVSNRFSGISDRFSGSGSGTDFTLKISRVEAEDLGVYFCSQSTHVPPFTFGSGTKLEIK
# B22: KCD039 (antibody, V domains shown)
# VH: B21 VH with L11M, T16A, M34L, A97T
# VL: B21 VL with P12S, F42L, F51L, S64T
# B23: KCD133 (antibody, V domains shown)
# VH: EVQLVESGGGLLQPKGSLKLSCAASGFTFNTYAMNWVRQAPGKGLEWVARIRSKSSNYATYYADSVKDRFTISRDDSQSMFYLEMNNLKTEDTAMYYCVRDRGYYYVMDYWGQGTSVTVSS
# VL: DIVLTQSPASLAVSLGQRATISCRASESVEYYGTSLMQWYQQKPGQPPKLLINAASNVESGVPARFSGSGSGTDFSLNIHPVEEDDIAMYFCQQSRKVPWTFGGGTKLEIK
# B24: KCD114 (antibody, V domains shown)
# VH: EVQLQQSGPELVKPGASVKISCKASGYSFTAYYMNWVKQSPEKSLEWIGDINPSTGGTTYNQNFKAKATLTVDKSSSTAYMHLKSLTSEDSAVYYCATTYYSGNSYVGFAYWGQGTLVTVSA
# VL: DIVMTQSHKFMSTSVGDRVSITCKASQDVSTAVAWYQQKPGQSPKLLIFWASTRHTGVPDRFTGSGSGTDYTLTISSVQAEDLALYYCQQHYSTPWTFGGGTKLEIK
# B25: KCD214 (antibody, V domains shown)
# VH: EVQLQQSVAEFVRPGASVKLSCTASGFNIKNTYMHWVKQRPEQGLEWIGRIDPANGNTEYAPKFQGKATITADTSSNTAYLQLSSLTSEDTAIYYCALYDYDGYWGQGTTLTVSS
# VL: EIVLTQSPALMAASPGEKVTITCRVSSSISSSSLHWYQQKSGTSPKPWIYGTSNLASGVPVRFSGSRSGTSYSLTISSMEAEDAATYYCQQWSDYPWTFGGGTKLEIK
# B26: KCD208 (antibody, V domains shown)
# VH: B25 VH with F11L, A24V, N57D, E59T, T78S, Q82H, S85R, A97S
# VL: B25 VL with R24S, Q38R, N54H, R67G, S93D, D94T
# Molecular target: T1, human Complement Factor D (CFD), purified from human serum (human, UniProt P00746 26-253)
# T1 construct: serum purified (CompTech A136); also called serum purified CFD; hCFD-Comptech
# T1 sequence (P00746 26-253): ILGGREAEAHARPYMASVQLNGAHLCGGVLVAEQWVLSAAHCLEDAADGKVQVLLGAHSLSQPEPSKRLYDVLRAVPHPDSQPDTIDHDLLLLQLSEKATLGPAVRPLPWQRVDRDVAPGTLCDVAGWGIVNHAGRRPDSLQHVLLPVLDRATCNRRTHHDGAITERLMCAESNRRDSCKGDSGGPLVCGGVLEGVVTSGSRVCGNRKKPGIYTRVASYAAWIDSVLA
# Assay: SPR MX96, mAbs amine-coupled, CFD injected
row,Kd,Binder
1,4.17 nM,B1
2,4.38 nM,B2
3,1.93 nM,B3
4,4.37 nM,B4
5,7.32 nM,B5
6,0.132 nM,B6
7,7.24 nM,B7
8,0.353 nM,B8
9,0.34 nM,B9
10,2.98 nM,B10
11,3.75 nM,B11
12,0.0535 nM,B12
13,40.8 nM,B13
14,0.504 nM,B14
15,7.85 nM,B15
16,3.83 nM,B16
17,1.96 nM,B17
18,3.07 nM,B18
19,3.28 nM,B19
20,2.48 nM,B20
21,37.2 nM,B21
22,52.5 nM,B22
23,11.5 nM,B23
24,8.06 nM,B24
25,1.56 nM,B25
26,2.55 nM,B26
